Experiment in all cases: SPOT array
For test [1], the target named is T1, Boi1 SH3 (BOI1_YEAST), P38041.
T1 chain: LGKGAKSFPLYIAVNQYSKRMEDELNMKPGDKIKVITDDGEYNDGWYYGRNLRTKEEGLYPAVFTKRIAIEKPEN

For test [2], the target named is T2, Boi2 SH3 (BOI2_YEAST), P39969.
T2 chain: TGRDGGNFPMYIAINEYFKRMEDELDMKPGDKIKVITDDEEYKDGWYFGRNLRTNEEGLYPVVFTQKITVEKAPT

Test [3] deals with T3, Rvs167 SH3 (RV167_YEAST), P39743.
T3 chain: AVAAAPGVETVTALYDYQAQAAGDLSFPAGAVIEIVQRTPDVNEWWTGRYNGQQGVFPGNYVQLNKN

Test [4] deals with T4, Yfr024 SH3 (LSB3_YEAST), P43603.
T4 chain: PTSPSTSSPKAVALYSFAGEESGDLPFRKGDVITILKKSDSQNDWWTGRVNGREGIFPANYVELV

For test [5], the target named is T5, Yhr016c SH3 (YSC84_YEAST), P32793.
T5 chain: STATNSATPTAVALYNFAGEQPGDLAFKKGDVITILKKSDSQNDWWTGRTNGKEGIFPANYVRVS

Data on eight molecules can be found in PMC314469, “Protein Interaction Networks by Proteome Peptide Scanning” (PLoS Biology, 2004).

Regarding LDRPQLPPRQVVNA [YMR192W 159-172], the normalised SPOT signal, Boehringer light units (BLU); mean over the file's lines of this peptide in test [1] was determined as 143; in test [2], 31.9; in test [3] it was 25900; in test [4], 14400; in test [5], 29100.
Regarding LFGPSFPNKTTVEI [YNL197C 178-191], the normalised SPOT signal, Boehringer light units (BLU); mean over the file's lines of this peptide in test [1] is 91.9; in test [2] it was 30.3; in test [3], 19.9; in test [4], 88.8; in test [5], 174.
The corresponding values for LDYPKAPIKLTMKS [YIL161W 160-173] are 48, 12.9, 5.9, 538 and 344.
Turning to LENPSTPDKTEEDW [YKL010C 724-737], the normalised SPOT signal, Boehringer light units (BLU); mean over the file's lines of this peptide in test [1] came to 50.1; in test [2], 52.1; in test [3], 27.7; in test [4], 61; in test [5] it was 68.6.
In the case of LDDPFTPPRWLHHI [YDR128W 52-65], the normalised SPOT signal, Boehringer light units (BLU); mean over the file's lines of this peptide stood at 423 in test [1]; 38.5 in test [2]; 89 in test [3]; 3400 in test [4]; 708 in test [5].
As for LSIPDLPLRIHNQT [YCR087W 13-26], the normalised SPOT signal, Boehringer light units (BLU); mean over the file's lines of this peptide in test [1] turned out to be 69.2; in test [2] it was 35.3; in test [3] it was 2710; in test [4], 25400; in test [5], 31200.
LDHPNIPWKLIISG [YJR117W 8-21]: the normalised SPOT signal, Boehringer light units (BLU); mean over the file's lines of this peptide turned out to be 76.1 in test [1]; 35.2 in test [2]; 7.6 in test [3]; 7.9 in test [4]; 150 in test [5].
The corresponding values for LEQPAEPSKLAKKL [YMR108W 66-79] are 86.5, 37.3, 8.3, 19.3 and 96.5.
